These results are taken from paper PMC11303814 (Nature Communications, 2024).

The series concerns the molecule itself. The experiment in a line: cryo-EM structure.

B1: full-length wild-type rat P2X7 receptor (receptor, UniProt Q64663 1-595, looked up)
chain: MPACCSWNDVFQYETNKVTRIQSVNYGTIKWILHMTVFSYVSFALMSDKLYQRKEPLISSVHTKVKGVAEVTENVTEGGVTKLVHGIFDTADYTLPLQGNSFFVMTNYLKSEGQEQKLCPEYPSRGKQCHSDQGCIKGWMDPQSKGIQTGRCIPYDQKRKTCEIFAWCPAEEGKEAPRPALLRSAENFTVLIKNNIDFPGHNYTTRNILPGMNISCTFHKTWNPQCPIFRLGDIFQEIGENFTEVAVQGGIMGIEIYWDCNLDSWSHRCQPKYSFRRLDDKYTNESLFPGYNFRYAKYYKENGMEKRTLIKAFGVRFDILVFGTGGKFDIIQLVVYIGSTLSYFGLATVCIDLIINTYASTCCRSRVYPSCKCCEPCAVNEYYYRKKCEPIVEPKPTLKYVSFVDEPHIWMVDQQLLGKSLQDVKGQEVPRPQTDFLELSRLSLSLHHSPPIPGQPEEMQLLQIEAVPRSRDSPDWCQCGNCLPSQLPENRRALEELCCRRKPGQCITTSELFSKIVLSREALQLLLLYQEPLLALEGEAINSKLRHCAYRSYATWRFVSQDMADFAILPSCCRWKIRKEFPKTQGQYSGFKYPY
modifications: limited glycosylation and acylation included in the models (sites not given)
For the protein B1, the binding result was “binds”.
